{"source": "patent US20220363757A1", "about": "(SYMPHOGEN A S, published 2022)", "binders": {"B1": {"name": "Fab fragment of antibody 15572 (Fab, V domains shown, not shown: a dimerising Fc or GST)", "VH": "QLQLQESGPGLVKPSETLSLTCTVSGDSISSSSYYWGWIRQPPGKGLEWIGSIFYSGNTYYNPSLKSRVTISVDTSKNQFSLKLSSVTAADTAVYYCAREDDFLTDYYGAFDIWGQGTMVTVSS", "VL": "not shown", "notes": "monomeric Fab made by GingisKHAN digestion of the IgG1"}, "B2": {"name": "Fab fragment of antibody 15011 (Fab, V domains shown, not shown: a dimerising Fc or GST)", "VH": "EVQLLESGGGLVQPGGSLRLSCAASGFDFRSYAMMWVRQAPGKGLEWVGGINGEVGGSNTYYAPAVKGRATISRDNSKNTLYLQMNSLRAEDTAVYYCVKGAGACGICNDDIDAWGQGTLVTVSS", "VL": "SYELTQDPAVSVALGQTVRITCSGAGSYAGSYYYGWHQQKPGQAPVTVIYDNDKRPSNIPDRFSGSSSGNTASLTITGAQAEDEADYYCGSTNDNDDGGLFGSGTKVTVLG", "notes": "as for B1"}, "B3": {"name": "Fab fragment of antibody 15532 (Fab, V domains shown, not shown: a dimerising Fc or GST)", "VH": "QVQLQQWGAGLLRPSETLSLTCAVYGESFSGYYWNWIRQPPGKGLEWIGEINHSGSTNYNPSLKSRVTISVDTSKTQFSLKLSSVTAADTAVYYCARGWDLLDWNDYWNEYWGQGTLVTVSS", "VL": "EIVLTQSPATLSLSPGERATLSCRASQSVSSYLAWYQQKPGQAPRLLIYDASNRATGIPARFSGSGSGTDFTLTISSLEPEDFAVYYCQQRSNWPLTFGGGTKVEIKR", "notes": "as for B1"}, "B4": {"name": "Fab fragment of antibody 15431 (Fab, V domains shown, not shown: a dimerising Fc or GST)", "VH": "QVQLQQSGPGLVKPSQTLSLTCAISGDSVSSNSAAWNWIRQSPSRGLEWLGRTYYRSKWYNDYAVSVKSRITINPDTSKNQFSLQLNSVTPEDTAVYYCARDDDWNDFDYWGQGTLVTVSS", "VL": "B3 VL", "notes": "as for B1"}}, "note": "Positions count from the first letter of the chain named."}
{"biological_target": "T1, human LAG-3 domain 1-2 Fc fusion, point mutation #21 A74S (human, UniProt P18627 23-266)", "T1 construct": "not shown: human IgG1 Fc, AA P101-K330", "T1 sequence": "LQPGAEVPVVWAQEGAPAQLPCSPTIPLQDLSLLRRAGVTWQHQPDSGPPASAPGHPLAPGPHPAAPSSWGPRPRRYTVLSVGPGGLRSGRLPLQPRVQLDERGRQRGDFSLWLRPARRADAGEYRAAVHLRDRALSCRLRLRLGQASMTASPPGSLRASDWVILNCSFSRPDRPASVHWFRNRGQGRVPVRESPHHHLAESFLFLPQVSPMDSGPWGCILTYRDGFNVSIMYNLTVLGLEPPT", "experiment": "SPR, Fab over captured mutant LAG-3-Fc;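 further: fc fusion variants captured on anti-human IgG Fc sensor, Fab injected with association then dissociation phases, KD obtained from Langmuir one-to-one fit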", "units": {"KD mutant/KD wild type": "fold"}}
{"binder": "B1", "KD mutant/KD wild type": 0.7}
{"binder": "B2", "KD mutant/KD wild type": 0.8}
{"binder": "B3", "KD mutant/KD wild type": 1}
{"binder": "B4", "KD mutant/KD wild type": 0.8}
{"biological_target": "T2, human LAG-3 domain 1-2 Fc fusion, point mutation #72 S133A (human, UniProt P18627 23-266)", "T2 construct": "not shown: human IgG1 Fc, AA P101-K330", "T2 sequence": "T1 sequence with S52A, S111A", "experiment": "SPR, Fab over captured mutant LAG-3-Fc;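 further: fc fusion variants captured on anti-human IgG Fc sensor, Fab injected with association then dissociation phases, KD obtained from Langmuir one-to-one fit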", "units": {"KD mutant/KD wild type": "fold"}}
{"binder": "B1", "binding result": "no binding (tested: 300 nM)"}
{"binder": "B2", "KD mutant/KD wild type": 0.6}
{"binder": "B3", "KD mutant/KD wild type": 2.2}
{"binder": "B4", "binding result": "no binding (tested: 300 nM)"}
{"biological_target": "T3, human LAG-3 domain 1-2 Fc fusion, point mutation #57 R113A (human, UniProt P18627 23-266)", "T3 construct": "not shown: human IgG1 Fc, AA P101-K330", "T3 sequence": "T1 sequence with S52A, R91A", "experiment": "SPR, Fab over captured mutant LAG-3-Fc;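 further: fc fusion variants captured on anti-human IgG Fc sensor, Fab injected with association then dissociation phases, KD obtained from Langmuir one-to-one fit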", "units": {"KD mutant/KD wild type": "fold"}}
{"binder": "B1", "KD mutant/KD wild type": 0.7}
{"binder": "B2", "KD mutant/KD wild type": 3.3}
{"binder": "B3", "KD mutant/KD wild type": 0.6}
{"binder": "B4", "KD mutant/KD wild type": 0.9}
{"biological_target": "T4, human LAG-3 domain 1-2 Fc fusion, point mutation #44 R97A (human, UniProt P18627 23-266)", "T4 construct": "not shown: human IgG1 Fc, AA P101-K330", "T4 sequence": "T1 sequence with S52A, R75A", "experiment": "SPR, Fab over captured mutant LAG-3-Fc;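 further: fc fusion variants captured on anti-human IgG Fc sensor, Fab injected with association then dissociation phases, KD obtained from Langmuir one-to-one fit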", "units": {"KD mutant/KD wild type": "fold"}}
{"binder": "B1", "KD mutant/KD wild type": 0.6}
{"binder": "B2", "KD mutant/KD wild type": 0.7}
{"binder": "B3", "KD mutant/KD wild type": 0.9}
{"binder": "B4", "KD mutant/KD wild type": 1.3}
{"biological_target": "T5, human LAG-3 domain 1-2 Fc fusion, point mutation #7 P49A (human, UniProt P18627 23-266)", "T5 construct": "not shown: human IgG1 Fc, AA P101-K330", "T5 sequence": "T1 sequence with P27A, S52A", "experiment": "SPR, Fab over captured mutant LAG-3-Fc", "units": {"KD mutant/KD wild type": "fold"}}
{"binder": "B1", "binding result": "no binding (tested: 300 nM)"}
{"binder": "B2", "KD mutant/KD wild type": 0.8}
{"binder": "B3", "KD mutant/KD wild type": 1.7}
{"binder": "B4", "binding result": "no binding (tested: 300 nM)"}
{"biological_target": "T6, human LAG-3 domain 1-2 Fc fusion, point mutation #23 P76A (human, UniProt P18627 23-266)", "T6 construct": "not shown: human IgG1 Fc, AA P101-K330", "T6 sequence": "T1 sequence with S52A, P54A", "experiment": "SPR, Fab over captured mutant LAG-3-Fc", "units": {"KD mutant/KD wild type": "fold"}}
{"binder": "B1", "KD mutant/KD wild type": 0.6}
{"binder": "B2", "KD mutant/KD wild type": 0.8}
{"binder": "B3", "KD mutant/KD wild type": 1}
{"binder": "B4", "KD mutant/KD wild type": 0.7}
{"biological_target": "T7, human LAG-3 domain 1-2 Fc fusion, point mutation #35 A88S (human, UniProt P18627 23-266)", "T7 construct": "not shown: human IgG1 Fc, AA P101-K330", "T7 sequence": "T1 sequence with S52A, A66S", "experiment": "SPR, Fab over captured mutant LAG-3-Fc", "units": {"KD mutant/KD wild type": "fold"}}
{"binder": "B1", "KD mutant/KD wild type": 0.6}
{"binder": "B2", "KD mutant/KD wild type": 0.9}
{"binder": "B3", "KD mutant/KD wild type": 3.7}
{"binder": "B4", "KD mutant/KD wild type": 0.6}
{"biological_target": "T8, human LAG-3 domain 1-2 Fc fusion, point mutation #51 G107A (human, UniProt P18627 23-266)", "T8 construct": "not shown: human IgG1 Fc, AA P101-K330", "T8 sequence": "T1 sequence with S52A, G85A", "experiment": "SPR, Fab over captured mutant LAG-3-Fc", "units": {"KD mutant/KD wild type": "fold"}}
{"binder": "B1", "binding result": "no binding (tested: 300 nM)"}
{"binder": "B2", "KD mutant/KD wild type": 5.7}
{"binder": "B3", "KD mutant/KD wild type": 2.1}
{"binder": "B4", "binding result": "no binding (tested: 300 nM)"}
{"biological_target": "T9, human LAG-3 domain 1-2 Fc fusion, point mutation #4 S45A (human, UniProt P18627 23-266)", "T9 construct": "not shown: human IgG1 Fc, AA P101-K330", "T9 sequence": "T1 sequence with S23A, S52A", "experiment": "SPR, Fab over captured mutant LAG-3-Fc", "units": {"KD mutant/KD wild type": "fold"}}
{"binder": "B1", "KD mutant/KD wild type": 0.6}
{"binder": "B2", "KD mutant/KD wild type": 0.7}
{"binder": "B3", "KD mutant/KD wild type": 1.7}
{"binder": "B4", "KD mutant/KD wild type": 0.4}
